Laboratory results from the supplement of paper PMC10567573.
± gives the standard deviation.

Test: protein stability index of a GFP-peptide fusion (GPS, HEK-293T) (PSI 1-6); higher = more stable
Settings: c terminus: a fixed tail appended
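Note: 24-mer peptide tiles fused after GFP, lentivirally expressed, FACS-sorted into six equal bins by GFP/DsRed ratio, decoded by Illumina sequencing, PSI is the read-weighted mean bin number.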

Sequence	protein stability index (treatment: DMSO)	protein stability index (treatment: MLN4924 1 uM, 8 h)
EEDFDSEQLSVLASCLQELFKAHF [INTS3]	2.24 ± 0.078	2.49 ± 0.29
EELYKEIDGVATTRYSVAGLSPYS [PTPRD]	3.14 ± 0.18	3.36 ± 0.22
EEPNGQIQGYRVYYTMDPTQHVNN [PTPRD]	3.18 ± 0.19	3.17 ± 0.34
EESILERVQQHIESKLLGSNSSRM [MLH1]	3.96 ± 0.15	3.92 ± 0.11
EGFQRCDVARQLGKNNEFSRLVAG [PSD2]	3.22 ± 0.25	3.58 ± 0.23
EGGEGEKEGEGEVGGEAVEVEEVE [TRIM55]	5.66 ± 0.35	5.41 ± 0.29
EGHQEGLVELPASFRELLTFFCTN [SCNN1D]	2.73 ± 0.36	2.71 ± 0.34
EGLRRRRGREAGPPQPMVPLAVEN [PBXIP1]	5 ± 0.49	4.98 ± 0.23
EGPDLVPAALGSLTTAQIARSVWR [HES6]	3.33 ± 0.39	3.59 ± 0.34
EGQHPAQLRSDVCTPGGTTIYGLH [PYCR3]	3.8 ± 0.35	3.92 ± 0.39
EKKKAHYRQSSFPHCSDLMPSGSE [KCNA4]	4.2 ± 0.2	4.31 ± 0.17
EKPYKCPECGEIFAHSSNLLRHQR [ZNF263]	3.07 ± 0.86	3.76 ± 0.93
EKRPLFLAPDFDRWLDESDAEMEL [HACD3]	4.45 ± 0.11	4.64 ± 0.068
ELERKLREVMESAVGNSSGSGQNE [FBXO28]	4.11 ± 0.19	4.24 ± 0.38
ELESLSAIEAELEKVAHQLQALRR [CHGA]	4.74 ± 0.22	4.97 ± 0.4
ELFHTIDTHNTNNLDTEELCEYFS [NECAB1]	3.41 ± 0.28	3.47 ± 0.1
ELGVIFYNCSCLVLDLQRIFALYS [PLD5]	3.24 ± 0.39	3.29 ± 1
ELKKAAYDIEVNTRRAQADLAYQL [FLOT1]	3.2 ± 0.32	3.3 ± 0.32
ELQRTKQEVLSLRRENSTLDVECH [SASS6]	4.02 ± 0.33	3.93 ± 0.2
ELVGSGYRMSLVKRRFATGMYLVS [FCHO1]	2.46 ± 0.64	2.26 ± 0.43
EMVRFLLEAGADQEHKTDEMHTAL [ANKRD17]	2.88 ± 0.38	3.05 ± 0.42
ENDGFVFKMPWKPTHPSSTHALAE [CDC25B]	3.55 ± 0.44	3.36 ± 0.16

Sequence	protein stability index (treatment: DMSO)	protein stability index (treatment: MLN4924 1 uM, 8 h)
ENEETGEFSIDNYPTDNTKVMIFK [MIA2]	–	4.217 ± 0.033
ENKVVEKAPVQNEAPALGGGEYQE [BEX5]	5.41 ± 0.2	5.42 ± 0.32
ENMDLNKIDDLMQEITEQQDIAQE [CHMP4C]	5.6 ± 0.27	5.4 ± 0.24
ENRRKVLYQRAPRNIHRHVILSEI [TCF25]	2.62 ± 0.073	2.75 ± 0.31
EPSQMLKHAVVNLINYQDDAELAT [CTNNB1]	4.16 ± 0.32	4.25 ± 0.26
EQALGKGCGADSKKKRPPQPPEES [PLK2]	5.24 ± 0.41	5.36 ± 0.2
EQCPVIDSQAPAGSLDLVPGGLTL [SPDEF]	4.07 ± 0.23	4.24 ± 0.13
EQEKEAQHKDQTAALPLAAEETAN [MAP2]	5.66 ± 0.12	5.5 ± 0.4
EQELYNNFVYNSPRGYFHTFAGDT [WASL]	2.73 ± 0.21	2.78 ± 0.32
EQIHLLLSSQCFSNISRPRDNPMC [M1AP]	2.25 ± 0.43	2.33 ± 0.25
EQLLARGYAVNVFDIQQGFDNPQV [NSDHL]	2.77 ± 0.19	3.54 ± 0.24
EQQHYFNTPFQLSIAPPEAEGVVL [PPTC7]	3.29 ± 0.38	3.56 ± 0.43
ERAKMSSSEVGPFVSKIRAVINDI [AUH]	2.76 ± 0.14	2.86 ± 0.31
ERKPAATARLSRRGTSLSPPPESS [KISS1]	5.16 ± 0.17	5.26 ± 0.17
ESIQQTARSIAEQAHELAYDPNYM [PPTC7]	4.52 ± 0.19	4.3 ± 0.37
ESVEQLESRIVEQENAIQTMELRN [SNX8]	5.41 ± 0.21	5.51 ± 0.11
ETAPLTLESLPTDPLLLILSFLDY [FBXO3]	2.36 ± 0.19	2.28 ± 0.19
ETDDPRRYQKYGYIGTHEYPHFSH [OAS1]	2.88 ± 0.15	3 ± 0.19
ETPNSLNTTVIPNGSMAMGTVPGQ [LYSMD4]	4.43 ± 0.19	4.42 ± 0.23
ETRVWHRRDGKWQIVHFHRSGAPS [CAMK2A]	2.95 ± 0.07	3.1 ± 0.25
ETTRNTTGIEESTDGMILGPEDLS [LARP4]	5.47 ± 0.4	5.43 ± 0.28
ETVKLFICELVMALDYLQNQRIIH [STK32A]	3.39 ± 0.55	3.08 ± 0.27

Sequence	protein stability index (treatment: DMSO)	protein stability index (treatment: MLN4924 1 uM, 8 h)
ETVLALVNCISPLKYFSDFRPYFT [DENND6A]	2.54 ± 0.48	3.21 ± 0.83
EVKTRHSEKSQREDEEEEEGENYQ [CHGB]	5.64 ± 0.28	5.48 ± 0.31
EVSQQDPSHGEVGEHKDRIERQWG [ZSCAN9]	4.69 ± 0.18	4.95 ± 0.15
FALASLLQSAPDVKGRVRCLTAGP [ZSWIM9]	2.02 ± 0.29	2.42 ± 0.24
FALGLGFGGVIAFSSYNKQDNNCH [SLC6A17]	2.01 ± 0.4	2.44 ± 0.52
FANLIKEFVIIDCRYPYEYEGGHI [CDC25A]	2.98 ± 0.51	2.76 ± 1.1
FATRPGAIETAMEDLKGHVAETSG [TPRG1]	4.45 ± 0.31	4.81 ± 0.19
FDSSRQRAEGTDIPTVKPLKPRPE [ZC2HC1A]	5.02 ± 0.099	5.09 ± 0.14
FFFAVLHAIYSLSYPMRRSYRYKL [STEAP1]	2.31 ± 0.4	2.43 ± 0.53
FGIVEIDGMLYILGGEDGEKELIS [GAN]	2.35 ± 0.25	2.31 ± 0.29
FIYYENMLLGVPRLRQLKVRNDSC [PKD2L1]	2.33 ± 0.26	2.19 ± 0.3
FKMPWKPTHPSSTHALAEWASRRE [CDC25B]	3.54 ± 0.12	3.63 ± 0.36
FLPDLLIFQMVIICLMCVHSLERA [SMG5]	3.28 ± 0.47	2.59 ± 0.5
FLRQLPFRGDDGIFDDNFIEERKQ [SNX3]	3.55 ± 0.27	3.82 ± 0.35
FLSLDIPIGELYGLSESSGPHTIS [ACSBG2]	2.39 ± 0.4	2.47 ± 0.36
FLSLEASTETLVHVSDEDNNADLC [DLC1]	5.11 ± 0.27	5.2 ± 0.12
FMRTDNTCVNLLLEASNYQMMPYM [KLHL13]	2.46 ± 0.58	2.24 ± 0.36
FMYSGVENKQVVIIHHMRLQAKAL [INTS4]	2.48 ± 0.33	2.52 ± 0.63
FPAKYIYDPWNAPEGIQKVAKCLI [CRY1]	2.85 ± 0.39	2.43 ± 0.32
FPAYTQSTASTTSTTNSTAAKPAA [ZNF207]	4.68 ± 0.21	4.81 ± 0.25
FPFQAMVQFHRHHGQEGSILVTKV [GMPPB]	2.22 ± 0.37	2.07 ± 0.15
